Here are results for one substance from US20210220450A1, “TREATMENT OF AN IOP CONDITION” (The Research Foundation for The State University of New York, priority 2013, published 2021).

Assay [1] concerns the target N-methyl-D-aspartate receptor (NMDAR). The assay is described as follows: cell-based or functional assay.
Assay [2] has as its target low-density-lipoprotein receptor-related protein 1 (LRP-1) (UniProt Q07954). Briefly: cell-based or functional assay.
Chain of UniProt Q07954 (Q07954 20-4544 limits assumed): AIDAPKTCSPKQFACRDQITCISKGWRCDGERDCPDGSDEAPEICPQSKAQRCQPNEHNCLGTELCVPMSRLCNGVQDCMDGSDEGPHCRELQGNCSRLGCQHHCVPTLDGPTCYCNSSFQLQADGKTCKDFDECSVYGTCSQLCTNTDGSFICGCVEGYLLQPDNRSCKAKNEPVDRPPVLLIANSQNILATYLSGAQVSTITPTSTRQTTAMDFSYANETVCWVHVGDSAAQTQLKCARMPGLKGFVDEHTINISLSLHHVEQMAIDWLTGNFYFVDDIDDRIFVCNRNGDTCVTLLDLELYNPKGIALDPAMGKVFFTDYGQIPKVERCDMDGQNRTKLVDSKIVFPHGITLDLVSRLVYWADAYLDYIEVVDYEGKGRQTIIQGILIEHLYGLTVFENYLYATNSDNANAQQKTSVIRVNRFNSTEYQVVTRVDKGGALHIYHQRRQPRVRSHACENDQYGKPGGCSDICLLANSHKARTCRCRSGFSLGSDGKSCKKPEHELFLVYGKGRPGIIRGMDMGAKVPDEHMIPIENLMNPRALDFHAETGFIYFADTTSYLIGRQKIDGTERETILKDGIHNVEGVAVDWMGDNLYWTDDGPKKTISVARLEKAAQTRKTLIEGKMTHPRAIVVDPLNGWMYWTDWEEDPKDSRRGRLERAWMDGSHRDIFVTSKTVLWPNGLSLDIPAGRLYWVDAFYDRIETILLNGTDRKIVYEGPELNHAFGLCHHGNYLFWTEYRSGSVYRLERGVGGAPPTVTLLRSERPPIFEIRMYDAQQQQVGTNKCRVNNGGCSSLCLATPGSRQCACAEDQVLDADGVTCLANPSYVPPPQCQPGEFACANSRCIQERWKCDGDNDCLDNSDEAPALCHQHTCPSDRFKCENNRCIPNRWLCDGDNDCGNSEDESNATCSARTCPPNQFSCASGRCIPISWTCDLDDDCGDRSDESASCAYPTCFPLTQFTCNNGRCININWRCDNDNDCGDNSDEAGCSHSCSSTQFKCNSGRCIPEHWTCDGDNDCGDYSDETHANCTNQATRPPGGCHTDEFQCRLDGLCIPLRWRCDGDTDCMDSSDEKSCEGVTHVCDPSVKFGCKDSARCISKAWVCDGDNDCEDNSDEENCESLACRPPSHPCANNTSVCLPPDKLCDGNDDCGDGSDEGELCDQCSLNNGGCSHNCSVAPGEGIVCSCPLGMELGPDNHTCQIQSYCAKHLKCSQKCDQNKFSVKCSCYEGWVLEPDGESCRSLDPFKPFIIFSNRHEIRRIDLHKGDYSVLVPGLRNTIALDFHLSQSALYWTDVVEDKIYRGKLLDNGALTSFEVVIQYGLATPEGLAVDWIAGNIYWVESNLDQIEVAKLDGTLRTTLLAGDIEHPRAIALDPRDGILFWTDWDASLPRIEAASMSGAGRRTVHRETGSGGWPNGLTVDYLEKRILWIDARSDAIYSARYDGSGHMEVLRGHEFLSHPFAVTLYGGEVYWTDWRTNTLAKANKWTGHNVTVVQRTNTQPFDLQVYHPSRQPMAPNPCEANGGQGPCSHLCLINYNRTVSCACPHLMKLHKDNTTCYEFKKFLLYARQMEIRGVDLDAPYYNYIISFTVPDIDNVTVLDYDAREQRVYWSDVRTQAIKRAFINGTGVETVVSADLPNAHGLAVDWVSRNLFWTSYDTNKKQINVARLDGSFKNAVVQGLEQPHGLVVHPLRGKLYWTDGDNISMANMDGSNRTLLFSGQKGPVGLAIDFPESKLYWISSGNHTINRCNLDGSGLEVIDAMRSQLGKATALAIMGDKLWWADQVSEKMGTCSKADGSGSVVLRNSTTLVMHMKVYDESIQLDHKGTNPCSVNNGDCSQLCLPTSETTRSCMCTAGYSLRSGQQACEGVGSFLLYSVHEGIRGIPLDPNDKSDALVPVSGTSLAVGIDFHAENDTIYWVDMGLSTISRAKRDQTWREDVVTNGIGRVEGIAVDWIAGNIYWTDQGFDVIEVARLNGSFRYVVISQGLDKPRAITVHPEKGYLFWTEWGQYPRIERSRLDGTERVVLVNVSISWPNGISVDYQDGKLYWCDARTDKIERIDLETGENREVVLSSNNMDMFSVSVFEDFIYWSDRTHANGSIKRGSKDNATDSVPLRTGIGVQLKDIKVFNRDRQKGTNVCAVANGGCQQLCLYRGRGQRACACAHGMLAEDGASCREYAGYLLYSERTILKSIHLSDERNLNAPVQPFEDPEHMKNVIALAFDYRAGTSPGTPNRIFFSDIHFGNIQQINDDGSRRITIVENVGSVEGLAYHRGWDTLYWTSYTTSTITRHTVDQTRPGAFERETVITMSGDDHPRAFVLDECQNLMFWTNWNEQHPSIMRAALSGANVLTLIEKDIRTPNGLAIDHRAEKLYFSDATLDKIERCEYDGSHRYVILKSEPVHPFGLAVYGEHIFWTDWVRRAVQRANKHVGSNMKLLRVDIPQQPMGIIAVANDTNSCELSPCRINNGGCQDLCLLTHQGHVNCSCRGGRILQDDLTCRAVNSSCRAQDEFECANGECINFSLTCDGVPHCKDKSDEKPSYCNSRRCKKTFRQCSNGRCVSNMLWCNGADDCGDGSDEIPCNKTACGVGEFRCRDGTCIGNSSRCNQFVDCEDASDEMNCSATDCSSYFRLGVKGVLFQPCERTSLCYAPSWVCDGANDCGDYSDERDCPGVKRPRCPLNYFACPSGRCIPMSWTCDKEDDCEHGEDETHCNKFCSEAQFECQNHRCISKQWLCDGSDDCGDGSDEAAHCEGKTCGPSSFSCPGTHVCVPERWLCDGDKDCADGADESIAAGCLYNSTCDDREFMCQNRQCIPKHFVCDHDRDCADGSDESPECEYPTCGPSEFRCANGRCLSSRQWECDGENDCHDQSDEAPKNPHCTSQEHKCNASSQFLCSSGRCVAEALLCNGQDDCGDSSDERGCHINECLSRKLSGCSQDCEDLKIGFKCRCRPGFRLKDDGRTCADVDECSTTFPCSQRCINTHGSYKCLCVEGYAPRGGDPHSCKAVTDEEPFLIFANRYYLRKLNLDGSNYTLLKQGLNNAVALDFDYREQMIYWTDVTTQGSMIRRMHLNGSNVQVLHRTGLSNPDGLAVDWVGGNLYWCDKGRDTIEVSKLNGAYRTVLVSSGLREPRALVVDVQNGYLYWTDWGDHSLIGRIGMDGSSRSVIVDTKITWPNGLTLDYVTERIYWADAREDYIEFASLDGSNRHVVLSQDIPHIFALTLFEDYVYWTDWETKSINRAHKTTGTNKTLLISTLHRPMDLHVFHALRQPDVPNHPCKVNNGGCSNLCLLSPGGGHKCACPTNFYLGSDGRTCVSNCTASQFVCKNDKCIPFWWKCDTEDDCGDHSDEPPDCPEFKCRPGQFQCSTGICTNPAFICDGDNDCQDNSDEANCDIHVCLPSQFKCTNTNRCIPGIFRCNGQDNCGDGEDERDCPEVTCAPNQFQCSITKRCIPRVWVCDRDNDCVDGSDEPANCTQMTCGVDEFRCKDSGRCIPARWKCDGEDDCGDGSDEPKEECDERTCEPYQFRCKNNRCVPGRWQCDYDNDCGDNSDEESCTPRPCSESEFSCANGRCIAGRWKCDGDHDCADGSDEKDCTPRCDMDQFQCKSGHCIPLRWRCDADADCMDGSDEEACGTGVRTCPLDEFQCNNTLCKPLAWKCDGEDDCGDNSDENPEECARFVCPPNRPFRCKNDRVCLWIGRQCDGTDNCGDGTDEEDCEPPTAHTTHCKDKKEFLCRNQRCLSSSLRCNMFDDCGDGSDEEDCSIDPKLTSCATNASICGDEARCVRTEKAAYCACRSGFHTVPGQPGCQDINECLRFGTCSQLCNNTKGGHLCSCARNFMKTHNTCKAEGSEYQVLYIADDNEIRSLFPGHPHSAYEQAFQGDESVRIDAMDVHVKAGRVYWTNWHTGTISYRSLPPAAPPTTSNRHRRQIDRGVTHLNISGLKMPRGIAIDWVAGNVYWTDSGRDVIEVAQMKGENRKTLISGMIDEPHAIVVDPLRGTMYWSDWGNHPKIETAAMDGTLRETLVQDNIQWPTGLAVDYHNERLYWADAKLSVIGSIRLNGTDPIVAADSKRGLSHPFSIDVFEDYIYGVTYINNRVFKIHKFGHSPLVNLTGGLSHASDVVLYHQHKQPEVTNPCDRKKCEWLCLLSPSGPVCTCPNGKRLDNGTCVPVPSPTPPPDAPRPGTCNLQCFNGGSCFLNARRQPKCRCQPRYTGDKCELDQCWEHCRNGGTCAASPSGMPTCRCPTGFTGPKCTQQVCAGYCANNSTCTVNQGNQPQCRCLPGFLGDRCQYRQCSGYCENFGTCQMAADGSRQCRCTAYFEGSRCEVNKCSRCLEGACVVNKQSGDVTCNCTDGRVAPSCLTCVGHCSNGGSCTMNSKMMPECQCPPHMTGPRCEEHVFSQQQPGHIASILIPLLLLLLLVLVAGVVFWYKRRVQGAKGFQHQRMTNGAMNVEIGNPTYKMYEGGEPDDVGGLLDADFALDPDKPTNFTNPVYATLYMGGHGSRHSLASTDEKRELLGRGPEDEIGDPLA

For the substance “non-enzymatically active tPA (NE-tPA/S478A-tPA) (from UniProt P00750 36-562)”, in assay [1], the Simulated outflow facility of HTM cells in ACOS, PA+NE-tPA (no inhibitor) (µl/min/mmHg/mm^2) is 0.55; the Simulated outflow facility of HTM cells in ACOS, PA+NE-tPA+MK-801 (inhibitor of NMDA receptor) (µl/min/mmHg/mm^2) is 0.29; the Simulated outflow facility of HTM cells in ACOS, PA+NE-tPA+MK-801+RAP (both inhibitors) (µl/min/mmHg/mm^2) is 0.33. In assay [2], this substance had a Simulated outflow facility of HTM cells in ACOS, PA+NE-tPA (no inhibitor) (µl/min/mmHg/mm^2) of 0.55; a Simulated outflow facility of HTM cells in ACOS, PA+NE-tPA+MK-801+RAP (both inhibitors) (µl/min/mmHg/mm^2) of 0.33; a Simulated outflow facility of HTM cells in ACOS, PA+NE-tPA+RAP (inhibitor of LRP1) (µl/min/mmHg/mm^2) of 0.27.
